The record followed here is article PMC3725402.

Changes are numbered by the printed parent chain. Names and notes keep the numbering of the source.

What is called Km is the concentration of substrate that gives half-maximal velocity. By kcat is commonly meant the maximal rate divided by the concentration of active sites.

Holding throughout (format): biochemical, Arabidopsis thaliana
Substrate in series [1]: C[S+](CC[C@H](N)C(=O)O)C[C@H]1O[C@@H](n2cnc3c(N)ncnc32)[C@H](O)[C@@H]1O
Put plainly: HPLC of dansylated N-methylputrescine, fluorimetric. Particulars: PMT activity, co-substrate putrescine, 20 mM HEPES pH 8.0, 37°C, 2 mM DTT, 1 mM ascorbic acid. From the text: (§1) HPLC of dansylated N-methylputrescine, fluorimetric on AtSPDS1 (spermidine synthase 1)

Substrate in series [2]: NCCCCN
The description is as above. The following applies: PMT activity, co-substrate SAM, 20 mM HEPES pH 8.0, 37°C, 2 mM DTT, 1 mM ascorbic acid.
From the text: as §1

Substrate in series [3]: C[S+](CCCN)C[C@H]1O[C@@H](n2cnc3c(N)ncnc32)[C@H](O)[C@@H]1O
Put plainly: HPLC of dansylated spermidine, fluorimetric. The following applies: SPDS activity, co-substrate putrescine, 20 mM HEPES pH 8.0, 37°C, 2 mM DTT, 1 mM ascorbic acid. From the text: (§2) HPLC of dansylated spermidine, fluorimetric on AtSPDS1 (spermidine synthase 1)

Substrate in series [4]: NCCCCN
Put plainly: HPLC of dansylated spermidine, fluorimetric. The following applies: SPDS activity, co-substrate dcSAM, 20 mM HEPES pH 8.0, 37°C, 2 mM DTT, 1 mM ascorbic acid.
From the text: as §2

B1: AtSPDS1 (spermidine synthase 1) (Arabidopsis thaliana; D131I/Q107T/V134T) (protein)
chain: MDAKETSATDLKRPREEDDNGGAATMETENGDQKKEPACFSTVIPGWFSEMSPMWPGEAHSLKVEKVLFQGKSDYQDVIVFQSATYGKVLVLDGVIQLTERDECAYTEMITHLPLCSIPNPKKVLVIGGGIGGTLREVARHASIEQIDMCEIDKMVVDVSKQFFPDVAIGYEDPRVNLVIGDGVAFLKNAAEGSYDAVIVDSSDPIGPAKELFEKPFFQSVARALRPGGVVCTQAESLWLHMDIIEDIVSNCREIFKGSVNYAWTSVPTYPSGVIGFMLCSTEGPDVDFKHPLNPIDESSSKSNGPLKFYNAEIHSAAFCLPSFAKKVIESKAN
notes: pQE-30, N-terminal His tag, E. coli M15[pREP4], HisTrap purified
With B1, in series [1], the Km was 12 ± 0.60 µM and the catalytic constant (kcat) was 0.081 s⁻¹. Moreover, in series [2], the Km was 32 ± 1.88 µM and the kcat was 0.081 s⁻¹.

B2: AtSPDS1 (spermidine synthase 1) (Arabidopsis thaliana) (protein)
chain: B1 chain with T107Q, I131D, T134V
notes: as for B1
With B2, in series [3], the Km was determined as 18 ± 1.23 µM and the kcat was found to be 0.722 s⁻¹. Also, in series [4], the Km came out at 220 ± 18.44 µM and the kcat came to 0.722 s⁻¹.

B3: AtSPDS1 (spermidine synthase 1) (Arabidopsis thaliana; D131I) (protein)
chain: B1 chain with T107Q, T134V
notes: as for B1
Regarding B3, in series [1], the Km was found to be 28 ± 0.77 µM and the kcat turned out to be 0.00448 s⁻¹. Also, in series [2], the Km is 56 ± 4.45 µM and the kcat turned out to be 0.00448 s⁻¹.
